Experimental data reported in PMC10540216, “Activity Guided Azide-methyllysine Photo-trapping for Substrate Profiling of Lysine Demethylases” (Journal of the American Chemical Society, 2023).

tested on: KDM4A-I71AzF; experiment: CASI: photo-crosslinking with HEK293T cell extracts, StrepTactin enrichment and LC-MS/MS proteomics; type: binding, human; settings: sheet "Final results but with 0.01";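 also: lysates from HEK293T cells pretreated with a KDM4 inhibitor to raise proteome methylation, affinity-purified after ±UV, gel-resolved, trypsin-digested, with exclusive unique peptides per protein averaged per condition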

Molecule	Fold change (+UV/-UV)
RAD50_HUMAN (protein, UniProt Q92878 1-1312, looked up) DNA repair protein RAD50: MSRIEKMSILGVRSFGIEDKDKQIITFFSPLTILVGPNGAGKTTIIECLKYICTGDFPPGTKGNTFVHDPKVAQETDVRAQIRLQFRDVNGELIAVQRSMVCTQKSKKTEFKTLEGVITRTKHGEKVSLSSKCAEIDREMISSLGVSKAVLNNVIFCHQEDSNWPLSEGKALKQKFDEIFSATRYIKALETLRQVRQTQGQKVKEYQMELKYLKQYKEKACEIRDQITSKEAQLTSSKEIVKSYENELDPLKNRLKEIEHNLSKIMKLDNEIKALDSRKKQMEKDNSELEEKMEKVFQGTDEQLNDLYHNHQRTVREKERKLVDCHRELEKLNKESRLLNQEKSELLVEQGRLQLQADRHQEHIRARDSLIQSLATQLELDGFERGPFSERQIKNFHKLVRERQEGEAKTANQLMNDFAEKETLKQKQIDEIRDKKTGLGRIIELKSEILSKKQNELKNVKYELQQLEGSSDRILELDQELIKAERELSKAEKNSNVETLKMEVISLQNEKADLDRTLRKLDQEMEQLNHHTTTRTQMEMLTKDKADKDEQIRKIKSRHSDELTSLLGYFPNKKQLEDWLHSKSKEINQTRDRLAKLNKELASSEQNKNHINNELKRKEEQLSSYEDKLFDVCGSQDFESDLDRLKEEIEKSSKQRAMLAGATAVYSQFITQLTDENQSCCPVCQRVFQTEAELQEVISDLQSKLRLAPDKLKSTESELKKKEKRRDEMLGLVPMRQSIIDLKEKEIPELRNKLQNVNRDIQRLKNDIEEQETLLGTIMPEEESAKVCLTDVTIMERFQMELKDVERKIAQQAAKLQGIDLDRTVQQVNQEKQEKQHKLDTVSSKIELNRKLIQDQQEQIQHLKSTTNELKSEKLQISTNLQRRQQLEEQTVELSTEVQSLYREIKDAKEQVSPLETTLEKFQQEKEELINKKNTSNKIAQDKLNDIKEKVKNIHGYMKDIENYIQDGKDDYKKQKETELNKVIAQLSECEKHKEKINEDMRLMRQDIDTQKIQERWLQDNLTLRKRNEELKEVEEERKQHLKEMGQMQVLQMKSEHQKLEENIDNIKRNHNLALGRQKGYEEEIIHFKKELREPQFRDAEEKYREMMIVMRTTELVNKDLDIYYKTLDQAIMKFHSMKMEEINKIIRDLWRSTYRGQDIEYIEIRSDADENVSASDKRRNYNYRVVMLKGDTALDMRGRCSAGQKVLASLIIRLALAETFCLNCGIIALDEPTTNLDRENIESLAHALVEIIKSRSQQRNFQLLVITHDEDFVELLGRSEYVEKFYRIKKNIDQCSEIVKCSVSSLGFNVH	200
TCPQ_HUMAN (protein, UniProt P50990 2-548, looked up) T-complex protein 1 subunit …: ALHVPKAPGFAQMLKEGAKHFSGLEEAVYRNIQACKELAQTTRTAYGPNGMNKMVINHLEKLFVTNDAATILRELEVQHPAAKMIVMASHMQEQEVGDGTNFVLVFAGALLELAEELLRIGLSVSEVIEGYEIACRKAHEILPNLVCCSAKNLRDIDEVSSLLRTSIMSKQYGNEVFLAKLIAQACVSIFPDSGHFNVDNIRVCKILGSGISSSSVLHGMVFKKETEGDVTSVKDAKIAVYSCPFDGMITETKGTVLIKTAEELMNFSKGEENLMDAQVKAIADTGANVVVTGGKVADMALHYANKYNIMLVRLNSKWDLRRLCKTVGATALPRLTPPVLEEMGHCDSVYLSEVGDTQVVVFKHEKEDGAISTIVLRGSTDNLMDDIERAVDDGVNTFKVLTRDKRLVPGGGATEIELAKQITSYGETCPGLEQYAIKKFAEAFEAIPRALAENSGVKANEVISKLYAVHQEGNKNVGLDIEAEVPAVKDMLEAGILDTYLGKYWAIKLATNAAVTVLRVDQIIMAKPAGGPKPPSGKKDWDDDQND	1
LYSC_HUMAN (protein, UniProt P61626 19-148, looked up) Lysozyme C: KVFERCELARTLKRLGMDGYRGISLANWMCLAKWESGYNTRATNYNAGDRSTDYGIFQINSRYWCNDGKTPGAVNACHLSCSALLQDNIADAVACAKRVVRDPQGIRAWVAWRNRCQNRDVRQYVQGCGV	200
PDC6I_HUMAN (protein, UniProt Q8WUM4 2-868, looked up) Programmed cell death …: ATFISVQLKKTSEVDLAKPLVKFIQQTYPSGGEEQAQYCRAAEELSKLRRAAVGRPLDKHEGALETLLRYYDQICSIEPKFPFSENQICLTFTWKDAFDKGSLFGGSVKLALASLGYEKSCVLFNCAALASQIAAEQNLDNDEGLKIAAKHYQFASGAFLHIKETVLSALSREPTVDISPDTVGTLSLIMLAQAQEVFFLKATRDKMKDAIIAKLANQAADYFGDAFKQCQYKDTLPKEVFPVLAAKHCIMQANAEYHQSILAKQQKKFGEEIARLQHAAELIKTVASRYDEYVNVKDFSDKINRALAAAKKDNDFIYHDRVPDLKDLDPIGKATLVKSTPVNVPISQKFTDLFEKMVPVSVQQSLAAYNQRKADLVNRSIAQMREATTLANGVLASLNLPAAIEDVSGDTVPQSILTKSRSVIEQGGIQTVDQLIKELPELLQRNREILDESLRLLDEEEATDNDLRAKFKERWQRTPSNELYKPLRAEGTNFRTVLDKAVQADGQVKECYQSHRDTIVLLCKPEPELNAAIPSANPAKTMQGSEVVNVLKSLLSNLDEVKKEREGLENDLKSVNFDMTSKFLTALAQDGVINEEALSVTELDRVYGGLTTKVQESLKKQEGLLKNIQVSHQEFSKMKQSNNEANLREEVLKNLATAYDNFVELVANLKEGTKFYNELTEILVRFQNKCSDIVFARKTERDELLKDLQQSIAREPSAPSIPTPAYQSSPAGGHAPTPPTPAPRTMPPTKPQPPARPPPPVLPANRAPSATAPSPVGAGTAAPAPSQTPGSAPPPQAQGPPYPTYPGYPGYCQMPMPMGYNPYAYGQYNMPYPPVYHQSPGQAPYPGPQQPSYPFPQPPQQSYYPQQ	200
MPP6_HUMAN (protein, UniProt Q99547 1-160, looked up) M-phase phosphoprotein 6: MAAERKTRLSKNLLRMKFMQRGLDSETKKQLEEEEKKIISEEHWYLDLPELKEKESFIIEEQSFLLCEDLLYGRMSFRGFNPEVEKLMLQMNAKHKAEEVEDETVELDVSDEEMARRYETLVGTIGKKFARKRDHANYEEDENGDITPIKAKKMFLKPQD	200
ADAS_HUMAN (protein, UniProt O00116 59-658, looked up) Alkyldihydroxyacetonephosphate …: KARRAASAATAAPTATPAAQESGTIPKKRQEVMKWNGWGYNDSKFIFNKKGQIELTGKRYPLSGMGLPTFKEWIQNTLGVNVEHKTTSKASLNPSDTPPSVVNEDFLHDLKETNISYSQEADDRVFRAHGHCLHEIFLLREGMFERIPDIVLWPTCHDDVVKIVNLACKYNLCIIPIGGGTSVSYGLMCPADETRTIISLDTSQMNRILWVDENNLTAHVEAGITGQELERQLKESGYCTGHEPDSLEFSTVGGWVSTRASGMKKNIYGNIEDLVVHIKMVTPRGIIEKSCQGPRMSTGPDIHHFIMGSEGTLGVITEATIKIRPVPEYQKYGSVAFPNFEQGVACLREIAKQRCAPASIRLMDNKQFQFGHALKPQVSSIFTSFLDGLKKFYITKFKGFDPNQLSVATLLFEGDREKVLQHEKQVYDIAAKFGGLAAGEDNGQRGYLLTYVIAYIRDLALEYYVLGESFETSAPWDRVVDLCRNVKERITRECKEKGVQFAPFSTCRVTQTYDAGACIYFYFAFNYRGISDPLTVFEQTEAAAREEILANGGSLSHHHGVGKLRKQWLKESISDVGFGMLKSVKEYVDPNNIFGNRNLL	200
CKAP4_HUMAN (protein, UniProt Q07065 1-602, looked up) Cytoskeleton-associated …: MPSAKQRGSKGGHGAASPSEKGAHPSGGADDVAKKPPPAPQQPPPPPAPHPQQHPQQHPQNQAHGKGGHRGGGGGGGKSSSSSSASAAAAAAAASSSASCSRRLGRALNFLFYLALVAAAAFSGWCVHHVLEEVQQVRRSHQDFSRQREELGQGLQGVEQKVQSLQATFGTFESILRSSQHKQDLTEKAVKQGESEVSRISEVLQKLQNEILKDLSDGIHVVKDARERDFTSLENTVEERLTELTKSINDNIAIFTEVQKRSQKEINDMKAKVASLEESEGNKQDLKALKEAVKEIQTSAKSREWDMEALRSTLQTMESDIYTEVRELVSLKQEQQAFKEAADTERLALQALTEKLLRSEESVSRLPEEIRRLEEELRQLKSDSHGPKEDGGFRHSEAFEALQQKSQGLDSRLQHVEDGVLSMQVASARQTESLESLLSKSQEHEQRLAALQGRLEGLGSSEADQDGLASTVRSLGETQLVLYGDVEELKRSVGELPSTVESLQKVQEQVHTLLSQDQAQAARLPPQDFLDRLSSLDNLKASVSQVEADLKMLRTAVDSLVAYSVKIETNENNLESAKGLLDDLRNDLDRLFVKVEKIHEKV	200
HNRPQ_HUMAN (protein, UniProt O60506 2-623, looked up) Heterogeneous nuclear …: ATEHVNGNGTEEPMDTTSAVIHSENFQTLLDAGLPQKVAEKLDEIYVAGLVAHSDLDERAIEALKEFNEDGALAVLQQFKDSDLSHVQNKSAFLCGVMKTYRQREKQGTKVADSSKGPDEAKIKALLERTGYTLDVTTGQRKYGGPPPDSVYSGQQPSVGTEIFVGKIPRDLFEDELVPLFEKAGPIWDLRLMMDPLTGLNRGYAFVTFCTKEAAQEAVKLYNNHEIRSGKHIGVCISVANNRLFVGSIPKSKTKEQILEEFSKVTEGLTDVILYHQPDDKKKNRGFCFLEYEDHKTAAQARRRLMSGKVKVWGNVGTVEWADPIEDPDPEVMAKVKVLFVRNLANTVTEEILEKAFSQFGKLERVKKLKDYAFIHFDERDGAVKAMEEMNGKDLEGENIEIVFAKPPDQKRKERKAQRQAAKNQMYDDYYYYGPPHMPPPTRGRGRGGRGGYGYPPDYYGYEDYYDYYGYDYHNYRGGYEDPYYGYEDFQVGARGRGGRGARGAAPSRGRGAAPPRGRAGYSQRGGPGSARGVRGARGGAQQQRGRGVRGARGGRGGNVGGKRKADGYNQPDSKRRQTNNQNWGSQPIAQQPLQGGDHSGNYGYKSENQEFYQDTFGQQWK	200
KT33A_HUMAN (protein, UniProt O76009 1-404, looked up) Keratin, type I cuticular …: MSYSCGLPSLSCRTSCSSRPCVPPSCHGCTLPGACNIPANVSNCNWFCEGSFNGSEKETMQFLNDRLASYLEKVRQLERDNAELENLIRERSQQQEPLVCASYQSYFKTIEELQQKILCSKSENARLVVQIDNAKLASDDFRTKYETELSLRQLVESDINGLRRILDELTLCRSDLEAQVESLKEELLCLKQNHEQEVNTLRCQLGDRLNVEVDAAPTVDLNQVLNETRSQYEALVETNRREVEQWFATQTEELNKQVVSSSEQLQSYQAEIIELRRTVNALEIELQAQHNLRDSLENTLTESEARYSSQLSQVQRLITNVESQLAEIRSDLERQNQEYQVLLDVRARLECEINTYRSLLESEDCKLPSNPCATTNACDKSTGPCISNPCGLRARCGPCNTFGY	300
K1H1_HUMAN (protein, UniProt Q15323 1-416, looked up) Keratin, type I cuticular Ha1: MPYNFCLPSLSCRTSCSSRPCVPPSCHSCTLPGACNIPANVSNCNWFCEGSFNGSEKETMQFLNDRLASYLEKVRQLERDNAELENLIRERSQQQEPLLCPSYQSYFKTIEELQQKILCTKSENARLVVQIDNAKLAADDFRTKYQTELSLRQLVESDINGLRRILDELTLCKSDLEAQVESLKEELLCLKSNHEQEVNTLRCQLGDRLNVEVDAAPTVDLNRVLNETRSQYEALVETNRREVEQWFTTQTEELNKQVVSSSEQLQSYQAEIIELRRTVNALEIELQAQHNLRDSLENTLTESEARYSSQLSQVQSLITNVESQLAEIRSDLERQNQEYQVLLDVRARLECEINTYRSLLESEDCNLPSNPCATTNACSKPIGPCLSNPCTSCVPPAPCTPCAPRPRCGPCNSFVR	800
